No end group written: not given here.
Experiments:
A2.1 HLA molecules = A2.1 HLA molecules (Homo sapiens, UniProt P04439, D140Y/D185E/D98H/E176V/E277Q/G131W/G231S/I119V/I121R/I166T/I218V/L300P/L318F/N151K/N90K/P208A/P217A/Q86G/Q94H/R138H/R169H/T345S); assay type: binding; set-up: A*0201 / A2.1 Binding / A2 Bind. / A2 / A2.1 (binding capacity): scale not given here
HLA-A11 (A*1101) = HLA-A11 (A*1101) (Homo sapiens, UniProt P04439, A114D/D185E/E176A/F33Y/L180Q/S129P/T187R); assay: biochemical; assay type: binding; set-up: A11: unit not given here
HLA-A*0201 (HLA-A2.1) = HLA-A*0201 (HLA-A2.1) (Homo sapiens, UniProt P04439, D140Y/D185E/D98H/E176V/E277Q/G131W/G231S/I119V/I121R/I166T/I218V/L300P/L318F/N151K/N90K/P208A/P217A/Q86G/Q94H/R138H/R169H/T345S); assay: biochemical; assay type: binding
HLA-A3.2 (A*0301) = HLA-A3.2 (A*0301) (Homo sapiens, UniProt P04439); assay: biochemical; assay type: binding; settings: Table 164, MAGE peptides; binding value to HLA-A3.2, no unit given
DRB5*0101 = DRB5*0101 (Homo sapiens, UniProt P01903+Q30154); assay: biochemical; settings: DRB5*0101

RMLTIPQSV
A2 Bind. (A2.1 HLA molecules): 0.0580

LLWKGEGAVV
A2 (A2.1 HLA molecules): 0.0360

LLPFVQWFV
A2 Bind. (A2.1 HLA molecules): 0.6500

SLHCKPEEA
A11 (HLA-A11 (A*1101)): 0 | A2.1 (HLA-A*0201 (HLA-A2.1)): 0.013 | A3.2 (HLA-A3.2 (A*0301)): <0.0002 | A2 Bind. (A2.1 HLA molecules): 0.0130 | A2.1 relative binding (ratio of binding of test peptide relative to standard peptide) (A2.1 HLA molecules): 0.013

VLARTFTPV
A2 Bind. (A2.1 HLA molecules): 0.0440 | A2.1 Binding (A2.1 HLA molecules): 0.044

SLAFSAVPA
A2 Bind. (A2.1 HLA molecules): 0.0340

HLPDRVHFA
A2 Bind. (A2.1 HLA molecules): 0.0160

ELQMMQDWV
A2.1 Binding (A2.1 HLA molecules): 0.0001

SISGVLWQV [Peptide F124.09]
A*0201 (A2.1 HLA molecules): 0.1400

ILGLLGFAV
A2.1 relative binding (ratio of binding of test peptide relative to standard peptide) (A2.1 HLA molecules): 0.060

IMPKAGLLIIV
binding to HLA-A2.1 (column 3; no allele head shown for these rows) (HLA-A*0201 (HLA-A2.1)): 0.013 | A2 Bind. (A2.1 HLA molecules): 0.0130

LLGRASFEV
A2 Bind. (A2.1 HLA molecules): 0.2200

YLLDLQEPV
A2.1 relative binding (ratio of binding of test peptide relative to standard peptide) (A2.1 HLA molecules): 0.22

LMPPPVAEL
A2.1 Binding (A2.1 HLA molecules): 0.0066

LLGRNAFEV
A2 Bind. (A2.1 HLA molecules): 0.0390

ALISFLLLA
A2 Bind. (A2.1 HLA molecules): 0.2200

GLSYDGLLG
binding to HLA-A2.1 (column 3; no allele head shown for these rows) (HLA-A*0201 (HLA-A2.1)): 0 | A2.1 relative binding (ratio of binding of test peptide relative to standard peptide) (A2.1 HLA molecules): 0

FMLLLCLIFL
A2 Bind. (A2.1 HLA molecules): 0.0450

ALSLIVNLL
A2 Bind. (A2.1 HLA molecules): 0.0470

RLTWRLTWL
A2.1 Binding (A2.1 HLA molecules): 0.0052

YLYRLNFCL
A2 Bind. (A2.1 HLA molecules): 0.7200 | A2.1 Binding (A2.1 HLA molecules): 0.72

SLRIKRELL
A2.1 Binding (A2.1 HLA molecules): 0

RLGRNSFEV
A2 Bind. (A2.1 HLA molecules): 0.0190

ELSIFRERL
A2.1 Binding (A2.1 HLA molecules): 0.0002

YMFLWGPRV [listing 1 of 2 here]
binding to HLA-A2.1 (column 3; no allele head shown for these rows) (HLA-A*0201 (HLA-A2.1)): 0.22 | A2 Bind. (A2.1 HLA molecules): 0.2200

LMTLATWVGV
A2 Bind. (A2.1 HLA molecules): 0.6800

GLCQVFADV
A2 Bind. (A2.1 HLA molecules): 0.0300

RMTGGVFLV
A2 Bind. (A2.1 HLA molecules): 0.1500

TLMSIVSSL
A2 Bind. (A2.1 HLA molecules): 0.2000

YLPSALNPV
A2 Bind. (A2.1 HLA molecules): 0.3200

KA SEYLQLV
A2 Bind. (A2.1 HLA molecules): 0.0110

FLLAQFTSA
A2 (A2.1 HLA molecules): 0.6600 | A2 Bind. (A2.1 HLA molecules): 0.6600

1.0092 (TLTCGFACL) [Peptide 1.0092]
A2.1 Binding (A2.1 HLA molecules): 0.0004

YMFLWGPRV [listing 2 of 2 here]
A2.1 relative binding (ratio of binding of test peptide relative to standard peptide) (A2.1 HLA molecules): 0.22

RMGAVTTEV
A2 Bind. (A2.1 HLA molecules): 0.0200

MMWFVVLTV
A2 Bind. (A2.1 HLA molecules): 0.7600 | A2.1 Binding (A2.1 HLA molecules): 0.76

LLALLSCLTV [Peptide F127.03]
A*0201 (A2.1 HLA molecules): 0.0240

PLRVTPSDL
A2.1 Binding (A2.1 HLA molecules): 0

LMPFVQWFV
A2 Bind. (A2.1 HLA molecules): 0.8300

LVPFVQWFA
A2.1 relative binding (ratio of binding of test peptide relative to standard peptide) (A2.1 HLA molecules): 0.0031

QLNAMKPDL
A2.1 Binding (A2.1 HLA molecules): 0.0001

AKSTWYGKPTGAGPKDNGGA [Peptide 620.03]
IC50 (DRB5*0101): 10 µM

GMLPVCPLI
A2 Bind. (A2.1 HLA molecules): 0.0520

ALAETSYVKVL
binding to HLA-A2.1 (column 3; no allele head shown for these rows) (HLA-A*0201 (HLA-A2.1)): 0.012 | A2 Bind. (A2.1 HLA molecules): 0.0120

AMGLVCVQV
binding to HLA-A2.1 (column 3; no allele head shown for these rows) (HLA-A*0201 (HLA-A2.1)): 0.012 | A2 Bind. (A2.1 HLA molecules): 0.0120
